# Changes are numbered by the printed parent chain.
# T1: O-glycosylated LYPD3-STP-ECD (expressed in and purified from NM-F9 cells) (human, UniProt O95274 234-303, O-glycosylated on Ser/Thr by NM-F9 cells: predominantly TF (Galβ1-3GalNAcα1-), lower amounts of Tn)
# T1 construct: also called NM-F9-derived LYPD3-STP; STP-rich C-terminal part of the ECD; not shown: fusion partner for purification and detection, e.g. Twin-Strep-tag, MBL or polyhistidine tag; which one and at which end
# T1 sequence: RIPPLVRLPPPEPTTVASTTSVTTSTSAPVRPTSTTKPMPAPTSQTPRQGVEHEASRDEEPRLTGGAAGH
# B1: 21E9-222 (antibody, V domains shown)
# VH: EVQLVESGGGLVQPGGSLRLSCAASGFDFSNYYYMCWVRQAPGKGLEWVSCIAAGSGGYTYYASWAKGRFTISRDNSKNTLYLQMNSLRAEDTAVYYCASSGDYKGFNLWGQGTLVTVS
# VL: DIVMTQSPSSLSASVGDRVTITCQASQSISSYLAWYQQKPGKPPKLLIYGASNLASGVPSRFSGSGSGTDFTLTISSLQPEDVATYYCQGYYYSFSDIFAFGGGTKVEI
# notes: Humanized 21E9; also called humanized aLYPD3 antibody 21E9-222
# B2: 21E9-228 (antibody, V domains shown)
# VH: B1 VH with E1Q, V5Q, S50L, V95I
# VL: B1 VL with D1A, V3R, M4I, T5A, V15T, P43A, S77C, P80S, V83F, G103Q
# notes: Humanized 21E9; also called humanized aLYPD3 antibody 21E9-228
# B3: 21E9-227 (antibody, V domains shown)
# VH: B1 VH with E1Q, Q13K, V38I, S77A, T80S
# VL: B1 VL with D1A, V3R, M4I, T5A, V15T, P43A, S77C, P80S, V83F, G103Q
# notes: Humanized 21E9; also called humanized aLYPD3 antibody 21E9-227
# B4: 21E9-219 (antibody, V domains shown)
# VH: B1 VH with E1L, Q13K, V38I, S77A, T80S, Y96W
# VL: B1 VL
# notes: Humanized 21E9; also called humanized aLYPD3 antibody 21E9-219
# B5: 21E9-221 (antibody, V domains shown)
# VH: B1 VH with L115M
# VL: B1 VL
# notes: Humanized 21E9; also called humanized aLYPD3 antibody 21E9-221
# B6: 21E9-225 (antibody, V domains shown)
# VH: B1 VH
# VL: B1 VL with D1A, V3R, M4I, T5A, V15T, P43A, S77C, P80S, V83F, G103Q
# notes: Humanized 21E9; also called humanized aLYPD3 antibody 21E9-225
# B7: 21E9-226 (antibody, V domains shown)
# VH: B1 VH
# VL: B1 VL with D1E, V107L
# notes: Humanized 21E9; also called humanized aLYPD3 antibody 21E9-226
# B8: 21E9-224 (antibody, V domains shown)
# VH: B1 VH
# VL: B1 VL with D1E, P43A, V83F
# notes: Humanized 21E9; also called humanized aLYPD3 antibody 21E9-224
# B9: 21E9-220 (antibody, V domains shown)
# VH: B1 VH with E1Q, V5Q, S50L, V95I
# VL: B1 VL
# notes: Humanized 21E9; also called humanized aLYPD3 antibody 21E9-220
# Target: T1, O-glycosylated LYPD3-STP-ECD (expressed …)
# Assay: ELISA and flow cytometry (FIGS. 14, 15 and 16)
# Description: Briefly, differently glycosylated and non-glycosylated protein antigens or glycans conjugated to carbohydrate-polyacrylamide conjugates (carbohydrate PAA-conjugates, GlycoNZ) were coated to 96-well plates overnight, unspecific binding was blocked and test antibody samples were added. In some assays an anti-huLYPD3 huIgG1 control monoclonal Ab was used, that was purified from CHO cell supernatant after expression of the antibody sequence derived from patent application WO 2011/070088 A1 (SEQ ID NOs: 51 and 52 of WO 2011/070088) (“aLYPD3 mAb”). This control anti-huLYPD3 antibody binds to the extracellular domain of human LYPD3 in a glycosylation-independent manner. To control protein antigen coating to the ELISA plates anti-huLYPD3 rabbit polyclonal antibody (R&D Systems, cat. no. AF5428) (“aLYPD3 pAb”) or a-MBL antibody (Novusbio) (“aMBL”) for constructs expressed as MBL fusion protein were used. Antibodies recognizing specific glycan structures were used to detect glycosylation of the coated proteins. Anti-TFa (“aTF”) antibody clone HH8 was kindly provided by Prof. Clausen, University of Copenhagen. Antibodies specifically recognizing Tn (“aTn”) were either purchased from SBH Sciences or also provided by Prof. Clausen, University of Copenhagen (clone 5F4). Afterwards, peroxidase conjugated anti-IgG secondary antibody was added, followed by 3,3′,5,5′-tetramethylbenzidine (TMB) substrate reaction. Antibody binding rates were determined by measurement absorbance at 450 nm and 620 or 630 nm as reference wavelength using a multimode microplate reader (PerkinElmer EnSpire 2300 or Tecan Spark).
# Binding of aLYPD3 clones to cell lines with different glycosylation status of LYPD3 was tested. LYPD3-transfected NM-F9 (LYPD3-F9), expressing LYPD3 carrying non-sialylated O-glycans, not transfected NM-F9 (corresponding WT cells), expressing endogenous level of LYPD3, and LYPD3-transfected HEK-O-glyc KO (LYPD3-HEK-O-glyc. KO) expressing LYPD3 without O-glycans, were stained with aLYPD3 clones and detected via fluorophore-coupled anti-human-IgG secondary reagent. Expression of LYPD3 and TFa was confirmed using control aLYPD3 pAb and mAb and aTF mAb. To determine background staining, an irrelevant hIgG1 control was included. DAPI was used to discriminate live from dead cells. Cells were analyzed using a Canto II (BD) flow cytometer.
row,binding result,Binder
1,binds,B1
2,binds,B2
3,binds,B3
4,binds,B4
5,binds,B5
6,binds,B6
7,binds,B7
8,binds,B8
9,binds,B9

# From patent US20250074999A1 (PENTIXAPHARM, published 2025)
